For orientation: EC50 (read off the curve) means the concentration giving half of the maximal effect.

In experiment [1] the target is T1, Cyno MUC17 ECD3577-his (His-tagged cynomolgus monkey MUC17 protein extracellular domain fusion protein) (cynomolgus monkey).
T1 construct: also called monkey MUC17-his protein; monkey MUC17 ECD3577-His
T1 chain: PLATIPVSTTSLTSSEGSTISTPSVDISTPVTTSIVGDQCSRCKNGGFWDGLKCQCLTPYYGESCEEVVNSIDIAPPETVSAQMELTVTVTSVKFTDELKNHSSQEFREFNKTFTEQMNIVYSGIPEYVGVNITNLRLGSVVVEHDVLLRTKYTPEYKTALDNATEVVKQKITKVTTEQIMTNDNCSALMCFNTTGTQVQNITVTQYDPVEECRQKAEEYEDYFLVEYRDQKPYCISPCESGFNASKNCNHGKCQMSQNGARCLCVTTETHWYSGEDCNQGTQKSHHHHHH
Put plainly: phage ELISA and FACS screening. On the technique in general: In an ELISA, binding on a coated surface is turned into a signal by an enzyme label.

The target in experiment [2] is human MUC17 on NUGC4 endogenous tumor cells (human, UniProt Q685J3 26-4493). Put plainly: FACS on NUGC4 cells, MFI. As to the method:
Then a complete medium was added to stop the digestion, and the cells were blown into a single cell suspension. After counting, the cells were centrifuged, and the cell pellet was resuspended to 2×10⁶ cells/mL in an FACS buffer (PBS+2% fetal bovine serum), and added to a 96-well FACS reaction plate at 100 µL/well. The plate was centrifuged, and the supernatant was discarded. An antibody sample to be tested (diluted in a 3-fold gradient from a starting concentration of 100 nM) was added at 50 µL/well and uniformly mixed with the cells, and the mixture was incubated at 4° C. for 1 h. […] The results were tested and analyzed by FACS (FACS Canto™, purchased from BD) after the plate was centrifuged and washed 3 times with a PBS buffer and resuspended with 100 μL of PBS. Data analysis was performed by software (FlowJo) to obtain the mean fluorescence intensity (MFI) of the cells. Then, analysis was performed by software (GraphPad Prism8), data were fitted, and EC50 values were calculated. As shown in FIGS. 3A-3B, the recombinant antibodies Lab315-huFc, Lab316-huFc, Lab320-huFc, Lab331-huFc, and Lab332-huFc are all capable of binding specifically to NUGC-4 cells.
The preparation of the assay cells and the antibodies to be tested and the assay were performed with reference to Example 3.4. […]

Experiment [3] deals with T2, Human MUC17 ECD4131-his (His-tagged human MUC17 protein extracellular domain fusion protein) (human, UniProt Q685J3 4131-4393).
T2 construct: a truncation of the extracellular domain; also called human MUC17-his protein; human MUC17-His
Put plainly: ELISA on coated human MUC17 ECD4131-his, OD450. As to the method: (§1) A human MUC17-his protein was diluted with PBS to a final concentration of […] and then added to a 96-well ELISA plate at 50 µL/well. The plate was incubated at 4° C. overnight. The next day, the plate was washed 2 times with PBST, and a blocking buffer [PBS+2% (w/w) BSA] was added for blocking at room temperature for 2 h. The blocking buffer was discarded, and the recombinant antibody and positive and negative control antibody with a starting concentration of 100 nM serially diluted by 3 folds were added at 50 μL/well. After incubation at 37° C. for 1 h, the plate was washed 3 times with PBST. A horseradish peroxidase (HRP)-labeled secondary antibody (purchased from Merck, Cat. No. AP113P) was added for incubation at 37° C. for 1 h, and the plate was washed 5 times with PBST. A TMB substrate was added at 50 μL/well for incubation at room temperature for 10 min, and then a stop solution (1.0 M HCl) was added at 50 µL/well. The OD₄₅₀ nm values were read by an ELISA plate reader (Multimode Plate Reader, EnSight, purchased from Perkin Elmer).

The target of experiment [4] is T2, Human MUC17 ECD4131-his (His-tagged …). Put plainly: ELISA on coated human MUC17 ECD4131-his, OD450. As to the method:
as §1
This is another data set of the same source.

Experiment [5] has the same target. Put plainly: ELISA on coated human MUC17 ECD4131-his, OD450. The source holds these as a separate data set.
The target is the same in experiment [6]. Put plainly: ELISA on coated human MUC17 ECD4131-his, OD450. As to the method: as §1
This is another data set of the same source.

Experiment [7] concerns the target T1, Cyno MUC17 ECD3577-his (His-tagged …). Put plainly: ELISA on coated monkey MUC17 ECD3577-His, OD450. As to the method:
as §1
(§2) The monkey MUC17-his protein was subjected to ELISA and data analysis according to the method described in Example 3.2. The recombinant antibodies Lab315-huFc, Lab316-huFc, Lab320-huFc, Lab331-huFc, and Lab332-huFc have a relatively good binding activity with the monkey MUC17-his protein.

Experiment [8] shares this target. Put plainly: ELISA on coated monkey MUC17 ECD3577-His, OD450. As to the method: as §1, §2
For experiment [9] the target is unchanged. Put plainly: ELISA on coated monkey MUC17 ECD3577-His, OD450. As to the method:
(§3) To assay the binding activity of the humanized antibodies with the monkey MUC17-his protein, the monkey MUC17-his protein was diluted with PBS to a final concentration of […] and subjected to ELISA assay and data analysis according to the method described in Example 3.3. The humanized antibodies SCR-7724, SCR-7782, SCR-7783, SCR-7784, and SCR-7785 have cross-binding activity with the monkey MUC17 protein, maintaining the binding ability of the recombinant antibody.

Experiment [10] shares this target. Put plainly: ELISA on coated monkey MUC17 ECD3577-His, OD450. As to the method:
as §3

Experiment [11] shares this target. Put plainly: ELISA on coated monkey MUC17 ECD3577-His, OD450. As to the method:
as §3

The target is the same in experiment [12]. Put plainly: ELISA on coated monkey MUC17 ECD3577-His, OD450. As to the method:
as §3

Like-named read-outs stand apart in the source and are kept apart here.

B1: Lab315 (VHH)
VHH: DVQLQASGGGAVQAGGSLRLSCAASGDITRRCMGWFRQAPGKEREGVAGISEDGITIYADSVKGRFTISKDNAKNSLYLQMNSLAPEDTANYSCAASILNRVGCRQLSYEYIYRGQGTQVTVSS
notes: also called Lab315 phage clone; SCR-7724
For the molecule B1, the binding result in experiment [1] is given as “binds”.

B2: 4C11-hIgG1 (antibody, V domains shown)
VH: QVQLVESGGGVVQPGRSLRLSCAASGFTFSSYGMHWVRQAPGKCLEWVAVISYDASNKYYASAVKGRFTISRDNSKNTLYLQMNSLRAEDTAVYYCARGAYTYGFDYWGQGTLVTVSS
VL: EIVLTQSPGTLSLSPGERATLSCRASQSVNRYLAWYQQKPGQAPRLLIYGASNRATGIPDRFTGSGSGTDFTLTISRLEPEDFAVYFCHHYGSSIFAFGCGTKVEIKR
notes: also called MUC17 control antibody
With B2, the “EC50 (read off the curve)” value is approximately 4 nM in [2]; approximately 0.05 nM in experiment [3]; approximately 0.01 nM in experiment [4]; approximately 0.01 nM in experiment [5]; approximately 0.05 nM in [6]; approximately 0.04 nM in [7]. The “EC50 (read off the curve)” value in experiment [8] is approximately 0.02 nM; in [9], approximately 0.05 nM; in experiment [10], approximately 0.02 nM; in [11], approximately 0.08 nM; in experiment [12] it was approximately 0.08 nM.

These data come from patent US20250297030A1 (SHANDONG SIMCERE BIOPHARMACEUTICAL, published 2025).
